Measured values as given in patent US20180140673A1.

Tests used:
[1] = molecular target: FGF receptor/BKL complex on HEK293 cells overexpressing human beta-klotho (BKL) (human) (UniProt Q86Z14); assay: cell-based or functional assay
[2] = molecular target: FGFR1c receptor/BKL complex on differentiated mouse 3T3-L1 adipocytes (mouse) (UniProt P16092); assay: cell-based or functional assay
Sequence of FGFR1c receptor/BKL complex on differentiated mouse 3T3-L1 adipocytes (mouse) (P16092 22-822, chain 1 of 2): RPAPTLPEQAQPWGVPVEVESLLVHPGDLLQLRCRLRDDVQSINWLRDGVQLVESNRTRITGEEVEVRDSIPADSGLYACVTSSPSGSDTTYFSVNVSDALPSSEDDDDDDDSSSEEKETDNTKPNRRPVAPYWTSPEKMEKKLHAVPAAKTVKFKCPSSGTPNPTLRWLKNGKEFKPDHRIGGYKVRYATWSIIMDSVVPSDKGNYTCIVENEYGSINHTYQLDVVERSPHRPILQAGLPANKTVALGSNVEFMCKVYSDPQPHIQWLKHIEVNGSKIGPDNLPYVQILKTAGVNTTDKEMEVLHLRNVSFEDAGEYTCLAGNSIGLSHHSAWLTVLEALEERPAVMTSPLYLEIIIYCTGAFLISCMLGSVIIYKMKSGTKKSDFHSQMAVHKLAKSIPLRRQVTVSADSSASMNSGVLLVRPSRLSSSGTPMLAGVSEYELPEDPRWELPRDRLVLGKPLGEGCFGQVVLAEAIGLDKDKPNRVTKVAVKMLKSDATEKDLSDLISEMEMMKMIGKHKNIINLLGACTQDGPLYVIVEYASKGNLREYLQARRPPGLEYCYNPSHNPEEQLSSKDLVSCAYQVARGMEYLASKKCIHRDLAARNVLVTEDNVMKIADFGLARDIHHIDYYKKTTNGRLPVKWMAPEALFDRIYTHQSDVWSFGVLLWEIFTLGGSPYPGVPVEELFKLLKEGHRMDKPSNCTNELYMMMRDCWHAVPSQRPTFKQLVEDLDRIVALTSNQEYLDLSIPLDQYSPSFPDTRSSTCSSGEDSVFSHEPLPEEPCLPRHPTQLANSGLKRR
Sequence of FGFR1c receptor/BKL complex on differentiated mouse 3T3-L1 adipocytes (mouse) (Q99N32 whole entry, chain 2 of 2, further chain): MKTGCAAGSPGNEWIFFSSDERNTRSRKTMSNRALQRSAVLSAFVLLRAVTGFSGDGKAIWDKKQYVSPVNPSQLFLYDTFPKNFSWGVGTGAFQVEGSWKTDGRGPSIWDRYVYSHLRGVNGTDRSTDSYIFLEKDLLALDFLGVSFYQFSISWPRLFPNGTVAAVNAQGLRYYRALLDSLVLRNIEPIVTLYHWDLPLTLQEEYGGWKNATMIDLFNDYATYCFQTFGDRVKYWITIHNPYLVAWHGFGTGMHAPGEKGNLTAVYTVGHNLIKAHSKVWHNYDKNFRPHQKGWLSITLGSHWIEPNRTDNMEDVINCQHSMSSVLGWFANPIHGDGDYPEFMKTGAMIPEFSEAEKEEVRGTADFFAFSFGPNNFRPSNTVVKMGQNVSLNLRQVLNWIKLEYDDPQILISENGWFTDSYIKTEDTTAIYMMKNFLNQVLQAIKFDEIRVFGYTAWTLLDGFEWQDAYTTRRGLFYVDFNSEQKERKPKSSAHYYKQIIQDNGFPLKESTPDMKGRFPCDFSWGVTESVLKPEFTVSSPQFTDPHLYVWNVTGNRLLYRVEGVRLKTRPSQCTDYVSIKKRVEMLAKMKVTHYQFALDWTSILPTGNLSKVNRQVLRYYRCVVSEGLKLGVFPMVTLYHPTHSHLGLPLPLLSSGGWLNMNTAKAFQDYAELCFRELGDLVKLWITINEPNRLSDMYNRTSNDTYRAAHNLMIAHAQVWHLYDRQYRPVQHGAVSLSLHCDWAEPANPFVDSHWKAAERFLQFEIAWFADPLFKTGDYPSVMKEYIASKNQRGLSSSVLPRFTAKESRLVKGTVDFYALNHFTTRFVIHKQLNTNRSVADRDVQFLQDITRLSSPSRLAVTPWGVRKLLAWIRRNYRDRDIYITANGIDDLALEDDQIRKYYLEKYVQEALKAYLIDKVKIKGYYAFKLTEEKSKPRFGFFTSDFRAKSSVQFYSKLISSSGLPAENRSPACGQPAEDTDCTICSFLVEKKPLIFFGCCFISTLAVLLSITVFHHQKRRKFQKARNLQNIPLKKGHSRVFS

Sequence of FGF receptor/BKL complex on HEK293 cells overexpressing human beta-klotho (BKL) (human) (Q86Z14 whole entry, one chain of several): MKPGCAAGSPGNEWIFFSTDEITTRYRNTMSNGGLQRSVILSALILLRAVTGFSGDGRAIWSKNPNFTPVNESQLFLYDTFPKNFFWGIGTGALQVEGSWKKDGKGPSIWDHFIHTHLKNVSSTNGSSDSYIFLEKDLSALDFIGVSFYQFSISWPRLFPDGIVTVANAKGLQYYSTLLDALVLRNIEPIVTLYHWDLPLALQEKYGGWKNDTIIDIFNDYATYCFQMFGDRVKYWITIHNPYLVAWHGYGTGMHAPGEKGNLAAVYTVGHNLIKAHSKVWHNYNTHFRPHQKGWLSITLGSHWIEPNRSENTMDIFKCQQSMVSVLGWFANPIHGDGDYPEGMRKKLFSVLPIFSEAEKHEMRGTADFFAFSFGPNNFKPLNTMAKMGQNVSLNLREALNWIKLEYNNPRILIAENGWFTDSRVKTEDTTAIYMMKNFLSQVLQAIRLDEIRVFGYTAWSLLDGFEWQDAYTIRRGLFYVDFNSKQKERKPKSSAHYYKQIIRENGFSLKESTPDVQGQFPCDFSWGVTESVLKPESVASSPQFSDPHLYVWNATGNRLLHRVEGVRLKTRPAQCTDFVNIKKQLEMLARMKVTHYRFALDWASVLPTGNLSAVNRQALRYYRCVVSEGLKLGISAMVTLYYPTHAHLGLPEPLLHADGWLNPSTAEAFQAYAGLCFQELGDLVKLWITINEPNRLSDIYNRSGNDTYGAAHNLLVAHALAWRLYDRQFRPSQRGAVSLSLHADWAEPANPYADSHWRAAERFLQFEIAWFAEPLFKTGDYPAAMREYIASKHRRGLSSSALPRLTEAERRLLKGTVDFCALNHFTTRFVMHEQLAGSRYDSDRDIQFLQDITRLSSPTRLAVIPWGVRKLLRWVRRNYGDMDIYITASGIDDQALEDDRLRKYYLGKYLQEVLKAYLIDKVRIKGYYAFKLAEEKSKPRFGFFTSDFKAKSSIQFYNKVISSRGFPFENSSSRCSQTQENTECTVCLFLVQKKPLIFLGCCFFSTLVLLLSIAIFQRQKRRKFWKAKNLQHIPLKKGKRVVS

EC50 (0.1% HSA) (nM), pERK, HEK293/BKL cells [1]: 137 nM
EC50 (nM), pERK, HEK293/BKL cells [1]: 167 nM
Glucose uptake EC50 (nM), 3T3-L1 adipocytes [2]: 186 nM
Glucose uptake Emax (%), 3T3-L1 adipocytes [2]: 59%
Substance: {Beta-178}-[2-[2-[[2-[2-[2-[[2-[2-[2-[[(4S)-4-carboxy-4-(15-carboxypentadecanoyl-amino)butanoyl]amino]ethoxy]ethoxy]acetyl]amino]ethoxy]ethoxy]acetyl]amino]-ethylamino]-2-oxoethyl]-Ala[Gln121,Leu168,Cys178]FGF21 (from UniProt Q9NSA1 29-209) (ligand)
